Experimental data: patent US20130045195

Tests used:
[1] = target: T1, celiac disease relevant peptide LGQQQPFPPQQPYPQPQPF
T1 chain: LGQQQPFPPQQPYPQPQPF

[2] = target: T2, celiac disease relevant peptide PQQPQQSFPQQQPPF
T2 chain: PQQPQQSFPQQQPPF

[3] = target: T3, celiac disease relevant peptide QLPQQPQQF
T3 chain: QLPQQPQQF

Measured: degradation of peptide analyzed by reverse phase liquid chromatography (50 µg/mL peptide, 25 µg/mL enzyme, 37 °C, pH 4.5, 1 hr)

B1: XP-972061 (proline specific protease, LOC660762, similar to prolylcarboxypeptidase / thymus-specific serine protease) (protein)
chain: RIFRNGRMVGGNLGEPKCNCKESSIKEVQEEWFTQNLDHFNPTDETTWKQRFYSNDQFFDPKNGGPVFLMIGGEGEASIKWMTQGAWVNYAEKFGALMFQLEHRYYGKSHPTDDLSTQNLKYLTSQQALADLATFITAMNEKYSLPPDVKWIAFGGSYPGSLAAWLRFKYPHLVHGAMSASGPLLAQVDFKDYFRVIKESLATHSDDCVTAVQQGVDQIGVLLKQEIGQANLNELFKLCDPVQNSINNEKDISNLYETIADDFAGVVQYNKDNRVGSPAGANITIDVVCDIMVNQTIGPPVNRLAKVNEVLLSAYDQKCLDYNYDKMINNLRNVSWDSEASEGGRQWTYQTCTEFGFYQTSDYEPQIFGDQFSVDFFIQQCTDIFGSIYDEDFLNSATERTNTYYGGLDIEVSNVVFVHGSIDPWHALGITKTIDEEAPAIYIEGTAHCANMYPPADTDLPQLKEAREQILNLIGTWLAQ
completely proteolyzed: [1] | [2] | [3]
